The text below walks through data of publication PMC9516340, “Familial ALS-associated SFPQ variants promote the formation of SFPQ cytoplasmic aggregates in primary neurons” (Open Biology, 2022).

This data set concerns the molecule itself. Nature of the data set: crystal structure; hanging-drop vapour diffusion at 20°C; SFPQ-276-535 L534I (His6-tag removed) mixed 1:1 with RXRα-DBD-130-228 as source of Zn(II); reservoir 0.1 M MES (pH 6.0), 0.2 M calcium chloride, 12% (w/v) PEG 4000; space group P2(1), two protein molecules per asu; 1.83 Å.

B1: SFPQ-276-535 L534I (dimerization domain of human splicing factor proline- and glutamine-rich, fALS-associated L534I variant) (domain or fragment, UniProt P23246 276-535, looked up)
chain: EGFKANLSLLRRPGEKTYTQRCRLFVGNLPADITEDEFKRLFAKYGEPGEVFINKGKGFGFIKLESRALAEIAKAELDDTPMRGRQLRVRFATHAAALSVRNLSPYVSNELLEEAFSQFGPIERAVVIVDDRGRSTGKGIVEFASKPAARKAFERCSEGVFLLTTTPRPVIVEPLEQLDDEDGLPEKLAQKNPMYQKERETPPRFAQHGTFEYEYSQRWKSLDEMEKQQREQVEKNMKDAKDKLESEMEDAYHEHQANIL
notes: also called SFPQ L534I
On to B1, for which the binding result is on record as “binds”.
